Experimental data from patent US20180155451A1 (published 2018).

Target: T1, FcγRIIb (human, UniProt P31994 43-217)
T1 construct: extracellular domain; also called 2b; FcgRIIb
T1 sequence (looked up): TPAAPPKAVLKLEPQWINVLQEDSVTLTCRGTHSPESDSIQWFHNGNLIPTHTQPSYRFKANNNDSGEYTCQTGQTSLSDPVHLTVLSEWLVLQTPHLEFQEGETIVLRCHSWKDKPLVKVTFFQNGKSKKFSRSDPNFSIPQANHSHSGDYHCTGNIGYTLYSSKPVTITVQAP
Assay: SPR (Biacore), binding relative to GpH7-A5/GpH7-B3/GpL16-k0 = 100
Description: Analysis of interaction between objective antibody and the FcγR was carried out using Biacore T100 (GE Healthcare). HBS-EP+ (GE Healthcare) was used as the running buffer, and the measurement temperature was set to 25° C. Chips produced by immobilizing the antigen peptide by the amine coupling method to a Series S Sencor Chip CM5 (GE Healthcare), or alternatively, chips produced by allowing preliminarily biotinylated antigen peptides to interact with and immobilize onto a Series S Sensor Chip SA (certified) (GE Healthcare) were used. Antibodies of interest were captured onto an antigen peptide-immobilized chip, and allowed to interact to each FcγR diluted with running buffer. To regenerate and repeatedly use the chip, the antibodies captured on the chip were washed off by reacting 10 mM glycine-HCl, pH 1.5.
The FcγR-binding activity of each antibody was assessed primarily using as an indicator the FcγR-binding activity and dissociation constant for FcγR.

Binder	He/Con_2b
GpH7-A5/GpH7-B3 variant L328_09D/GpL16-k0 (antibody, human IgG1, kappa, also called He Ab L328_09D) heavy 1: not shown heavy 2: not shown light: DIVMTQSPLSLPVTPGEPASISCQASESLVHSNRNTYLHWYLQKPGQSPQLLIYKVSNRFSGVPDRFSGSGSGTDFTLKISRVEAEDVGVYYCSQNTHVPPTFGQGTKVEIERTVAAPSVFIFPPSDEQLKSGTASVVCLLNNFYPREAKVQWKVDNALQSGNSQESVTEQDSKDSTYSLSSTLTLSKADYEKHKVYACEVTHQGLSSPVTKSFNRGEC	199 % of control
GpH7-A5/GpH7-B3 variant N325_09D/GpL16-k0 (antibody, human IgG1, kappa, also called He Ab N325_09D) heavy 1: not shown heavy 2: not shown light: DIVMTQSPLSLPVTPGEPASISCQASESLVHSNRNTYLHWYLQKPGQSPQLLIYKVSNRFSGVPDRFSGSGSGTDFTLKISRVEAEDVGVYYCSQNTHVPPTFGQGTKVEIERTVAAPSVFIFPPSDEQLKSGTASVVCLLNNFYPREAKVQWKVDNALQSGNSQESVTEQDSKDSTYSLSSTLTLSKADYEKHKVYACEVTHQGLSSPVTKSFNRGEC	124 % of control
GpH7-A5/GpH7-B3 variant P238_20W/GpL16-k0 (antibody, human IgG1, kappa, also called He Ab P238_20W) heavy 1: not shown heavy 2: not shown light: DIVMTQSPLSLPVTPGEPASISCQASESLVHSNRNTYLHWYLQKPGQSPQLLIYKVSNRFSGVPDRFSGSGSGTDFTLKISRVEAEDVGVYYCSQNTHVPPTFGQGTKVEIERTVAAPSVFIFPPSDEQLKSGTASVVCLLNNFYPREAKVQWKVDNALQSGNSQESVTEQDSKDSTYSLSSTLTLSKADYEKHKVYACEVTHQGLSSPVTKSFNRGEC	123 % of control
GpH7-A5/GpH7-B3 variant N325_06M/GpL16-k0 (antibody, human IgG1, kappa, also called He Ab N325_06M) heavy 1: not shown heavy 2: not shown light: DIVMTQSPLSLPVTPGEPASISCQASESLVHSNRNTYLHWYLQKPGQSPQLLIYKVSNRFSGVPDRFSGSGSGTDFTLKISRVEAEDVGVYYCSQNTHVPPTFGQGTKVEIERTVAAPSVFIFPPSDEQLKSGTASVVCLLNNFYPREAKVQWKVDNALQSGNSQESVTEQDSKDSTYSLSSTLTLSKADYEKHKVYACEVTHQGLSSPVTKSFNRGEC	217 % of control
GpH7-A5/GpH7-B3 variant P238_03V/GpL16-k0 (antibody, human IgG1, kappa, also called He Ab P238_03V) heavy 1: not shown heavy 2: not shown light: DIVMTQSPLSLPVTPGEPASISCQASESLVHSNRNTYLHWYLQKPGQSPQLLIYKVSNRFSGVPDRFSGSGSGTDFTLKISRVEAEDVGVYYCSQNTHVPPTFGQGTKVEIERTVAAPSVFIFPPSDEQLKSGTASVVCLLNNFYPREAKVQWKVDNALQSGNSQESVTEQDSKDSTYSLSSTLTLSKADYEKHKVYACEVTHQGLSSPVTKSFNRGEC	120 % of control
GpH7-A5/GpH7-B3 variant L328_10E/GpL16-k0 (antibody, human IgG1, kappa, also called He Ab L328_10E) heavy 1: not shown heavy 2: not shown light: DIVMTQSPLSLPVTPGEPASISCQASESLVHSNRNTYLHWYLQKPGQSPQLLIYKVSNRFSGVPDRFSGSGSGTDFTLKISRVEAEDVGVYYCSQNTHVPPTFGQGTKVEIERTVAAPSVFIFPPSDEQLKSGTASVVCLLNNFYPREAKVQWKVDNALQSGNSQESVTEQDSKDSTYSLSSTLTLSKADYEKHKVYACEVTHQGLSSPVTKSFNRGEC	172 % of control
GpH7-A5/GpH7-B3 variant P238_10E/GpL16-k0 (antibody, human IgG1, kappa, also called He Ab P238_10E) heavy 1: not shown heavy 2: not shown light: DIVMTQSPLSLPVTPGEPASISCQASESLVHSNRNTYLHWYLQKPGQSPQLLIYKVSNRFSGVPDRFSGSGSGTDFTLKISRVEAEDVGVYYCSQNTHVPPTFGQGTKVEIERTVAAPSVFIFPPSDEQLKSGTASVVCLLNNFYPREAKVQWKVDNALQSGNSQESVTEQDSKDSTYSLSSTLTLSKADYEKHKVYACEVTHQGLSSPVTKSFNRGEC	232 % of control
GpH7-A5/GpH7-B3 variant N325_08L/GpL16-k0 (antibody, human IgG1, kappa, also called He Ab N325_08L) heavy 1: not shown heavy 2: not shown light: DIVMTQSPLSLPVTPGEPASISCQASESLVHSNRNTYLHWYLQKPGQSPQLLIYKVSNRFSGVPDRFSGSGSGTDFTLKISRVEAEDVGVYYCSQNTHVPPTFGQGTKVEIERTVAAPSVFIFPPSDEQLKSGTASVVCLLNNFYPREAKVQWKVDNALQSGNSQESVTEQDSKDSTYSLSSTLTLSKADYEKHKVYACEVTHQGLSSPVTKSFNRGEC	197 % of control
GpH7-A5/GpH7-B3 variant N325_01G/GpL16-k0 (antibody, human IgG1, kappa, also called He Ab N325_01G) heavy 1: not shown heavy 2: not shown light: DIVMTQSPLSLPVTPGEPASISCQASESLVHSNRNTYLHWYLQKPGQSPQLLIYKVSNRFSGVPDRFSGSGSGTDFTLKISRVEAEDVGVYYCSQNTHVPPTFGQGTKVEIERTVAAPSVFIFPPSDEQLKSGTASVVCLLNNFYPREAKVQWKVDNALQSGNSQESVTEQDSKDSTYSLSSTLTLSKADYEKHKVYACEVTHQGLSSPVTKSFNRGEC	101 % of control
GpH7-A5/GpH7-B3 variant N325_03V/GpL16-k0 (antibody, human IgG1, kappa, also called He Ab N325_03V) heavy 1: not shown heavy 2: not shown light: DIVMTQSPLSLPVTPGEPASISCQASESLVHSNRNTYLHWYLQKPGQSPQLLIYKVSNRFSGVPDRFSGSGSGTDFTLKISRVEAEDVGVYYCSQNTHVPPTFGQGTKVEIERTVAAPSVFIFPPSDEQLKSGTASVVCLLNNFYPREAKVQWKVDNALQSGNSQESVTEQDSKDSTYSLSSTLTLSKADYEKHKVYACEVTHQGLSSPVTKSFNRGEC	111 % of control
GpH7-A5/GpH7-B3 variant P238_04F/GpL16-k0 (antibody, human IgG1, kappa, also called He Ab P238_04F) heavy 1: not shown heavy 2: not shown light: DIVMTQSPLSLPVTPGEPASISCQASESLVHSNRNTYLHWYLQKPGQSPQLLIYKVSNRFSGVPDRFSGSGSGTDFTLKISRVEAEDVGVYYCSQNTHVPPTFGQGTKVEIERTVAAPSVFIFPPSDEQLKSGTASVVCLLNNFYPREAKVQWKVDNALQSGNSQESVTEQDSKDSTYSLSSTLTLSKADYEKHKVYACEVTHQGLSSPVTKSFNRGEC	312 % of control
GpH7-A5/GpH7-B3 variant N325_13S/GpL16-k0 (antibody, human IgG1, kappa, also called He Ab N325_13S) heavy 1: not shown heavy 2: not shown light: DIVMTQSPLSLPVTPGEPASISCQASESLVHSNRNTYLHWYLQKPGQSPQLLIYKVSNRFSGVPDRFSGSGSGTDFTLKISRVEAEDVGVYYCSQNTHVPPTFGQGTKVEIERTVAAPSVFIFPPSDEQLKSGTASVVCLLNNFYPREAKVQWKVDNALQSGNSQESVTEQDSKDSTYSLSSTLTLSKADYEKHKVYACEVTHQGLSSPVTKSFNRGEC	177 % of control
GpH7-A5/GpH7-B3 variant N325_20W/GpL16-k0 (antibody, human IgG1, kappa, also called He Ab N325_20W) heavy 1: not shown heavy 2: not shown light: DIVMTQSPLSLPVTPGEPASISCQASESLVHSNRNTYLHWYLQKPGQSPQLLIYKVSNRFSGVPDRFSGSGSGTDFTLKISRVEAEDVGVYYCSQNTHVPPTFGQGTKVEIERTVAAPSVFIFPPSDEQLKSGTASVVCLLNNFYPREAKVQWKVDNALQSGNSQESVTEQDSKDSTYSLSSTLTLSKADYEKHKVYACEVTHQGLSSPVTKSFNRGEC	169 % of control
GpH7-A5/GpH7-B3 variant P238_16H/GpL16-k0 (antibody, human IgG1, kappa, also called He Ab P238_16H) heavy 1: not shown heavy 2: not shown light: DIVMTQSPLSLPVTPGEPASISCQASESLVHSNRNTYLHWYLQKPGQSPQLLIYKVSNRFSGVPDRFSGSGSGTDFTLKISRVEAEDVGVYYCSQNTHVPPTFGQGTKVEIERTVAAPSVFIFPPSDEQLKSGTASVVCLLNNFYPREAKVQWKVDNALQSGNSQESVTEQDSKDSTYSLSSTLTLSKADYEKHKVYACEVTHQGLSSPVTKSFNRGEC	115 % of control
GpH7-A5/GpH7-B3 variant P238_09D/GpL16-k0 (antibody, human IgG1, kappa, also called He Ab P238_09D) heavy 1: not shown heavy 2: not shown light: DIVMTQSPLSLPVTPGEPASISCQASESLVHSNRNTYLHWYLQKPGQSPQLLIYKVSNRFSGVPDRFSGSGSGTDFTLKISRVEAEDVGVYYCSQNTHVPPTFGQGTKVEIERTVAAPSVFIFPPSDEQLKSGTASVVCLLNNFYPREAKVQWKVDNALQSGNSQESVTEQDSKDSTYSLSSTLTLSKADYEKHKVYACEVTHQGLSSPVTKSFNRGEC	221 % of control
GpH7-A5/GpH7-B3 variant N325_07I/GpL16-k0 (antibody, human IgG1, kappa, also called He Ab N325_07I) heavy 1: not shown heavy 2: not shown light: DIVMTQSPLSLPVTPGEPASISCQASESLVHSNRNTYLHWYLQKPGQSPQLLIYKVSNRFSGVPDRFSGSGSGTDFTLKISRVEAEDVGVYYCSQNTHVPPTFGQGTKVEIERTVAAPSVFIFPPSDEQLKSGTASVVCLLNNFYPREAKVQWKVDNALQSGNSQESVTEQDSKDSTYSLSSTLTLSKADYEKHKVYACEVTHQGLSSPVTKSFNRGEC	171 % of control
GpH7-A5/GpH7-B3 variant N325_04F/GpL16-k0 (antibody, human IgG1, kappa, also called He Ab N325_04F) heavy 1: not shown heavy 2: not shown light: DIVMTQSPLSLPVTPGEPASISCQASESLVHSNRNTYLHWYLQKPGQSPQLLIYKVSNRFSGVPDRFSGSGSGTDFTLKISRVEAEDVGVYYCSQNTHVPPTFGQGTKVEIERTVAAPSVFIFPPSDEQLKSGTASVVCLLNNFYPREAKVQWKVDNALQSGNSQESVTEQDSKDSTYSLSSTLTLSKADYEKHKVYACEVTHQGLSSPVTKSFNRGEC	143 % of control
GpH7-A5/GpH7-B3 variant P238_15Y/GpL16-k0 (antibody, human IgG1, kappa, also called He Ab P238_15Y) heavy 1: not shown heavy 2: not shown light: DIVMTQSPLSLPVTPGEPASISCQASESLVHSNRNTYLHWYLQKPGQSPQLLIYKVSNRFSGVPDRFSGSGSGTDFTLKISRVEAEDVGVYYCSQNTHVPPTFGQGTKVEIERTVAAPSVFIFPPSDEQLKSGTASVVCLLNNFYPREAKVQWKVDNALQSGNSQESVTEQDSKDSTYSLSSTLTLSKADYEKHKVYACEVTHQGLSSPVTKSFNRGEC	218 % of control
GpH7-A5/GpH7-B3 variant L328_13S/GpL16-k0 (antibody, human IgG1, kappa, also called He Ab L328_13S) heavy 1: not shown heavy 2: not shown light: DIVMTQSPLSLPVTPGEPASISCQASESLVHSNRNTYLHWYLQKPGQSPQLLIYKVSNRFSGVPDRFSGSGSGTDFTLKISRVEAEDVGVYYCSQNTHVPPTFGQGTKVEIERTVAAPSVFIFPPSDEQLKSGTASVVCLLNNFYPREAKVQWKVDNALQSGNSQESVTEQDSKDSTYSLSSTLTLSKADYEKHKVYACEVTHQGLSSPVTKSFNRGEC	149 % of control
GpH7-A5/GpH7-B3 variant P238_06M/GpL16-k0 (antibody, human IgG1, kappa, also called He Ab P238_06M) heavy 1: not shown heavy 2: not shown light: DIVMTQSPLSLPVTPGEPASISCQASESLVHSNRNTYLHWYLQKPGQSPQLLIYKVSNRFSGVPDRFSGSGSGTDFTLKISRVEAEDVGVYYCSQNTHVPPTFGQGTKVEIERTVAAPSVFIFPPSDEQLKSGTASVVCLLNNFYPREAKVQWKVDNALQSGNSQESVTEQDSKDSTYSLSSTLTLSKADYEKHKVYACEVTHQGLSSPVTKSFNRGEC	174 % of control
GpH7-A5/GpH7-B3 variant P238_19Q/GpL16-k0 (antibody, human IgG1, kappa, also called He Ab P238_19Q) heavy 1: not shown heavy 2: not shown light: DIVMTQSPLSLPVTPGEPASISCQASESLVHSNRNTYLHWYLQKPGQSPQLLIYKVSNRFSGVPDRFSGSGSGTDFTLKISRVEAEDVGVYYCSQNTHVPPTFGQGTKVEIERTVAAPSVFIFPPSDEQLKSGTASVVCLLNNFYPREAKVQWKVDNALQSGNSQESVTEQDSKDSTYSLSSTLTLSKADYEKHKVYACEVTHQGLSSPVTKSFNRGEC	110 % of control
